The target of assay [1] is T1, CD22 (UniProt P20273 20-847, limits assumed).
T1 construct: whole, on cells; The assays used B-lymphoma cell lines Raji and Daudi, 'which are known to strongly express CD22'; also called CD22 on Raji cells; CD22 on Daudi cells
T1 sequence (looked up): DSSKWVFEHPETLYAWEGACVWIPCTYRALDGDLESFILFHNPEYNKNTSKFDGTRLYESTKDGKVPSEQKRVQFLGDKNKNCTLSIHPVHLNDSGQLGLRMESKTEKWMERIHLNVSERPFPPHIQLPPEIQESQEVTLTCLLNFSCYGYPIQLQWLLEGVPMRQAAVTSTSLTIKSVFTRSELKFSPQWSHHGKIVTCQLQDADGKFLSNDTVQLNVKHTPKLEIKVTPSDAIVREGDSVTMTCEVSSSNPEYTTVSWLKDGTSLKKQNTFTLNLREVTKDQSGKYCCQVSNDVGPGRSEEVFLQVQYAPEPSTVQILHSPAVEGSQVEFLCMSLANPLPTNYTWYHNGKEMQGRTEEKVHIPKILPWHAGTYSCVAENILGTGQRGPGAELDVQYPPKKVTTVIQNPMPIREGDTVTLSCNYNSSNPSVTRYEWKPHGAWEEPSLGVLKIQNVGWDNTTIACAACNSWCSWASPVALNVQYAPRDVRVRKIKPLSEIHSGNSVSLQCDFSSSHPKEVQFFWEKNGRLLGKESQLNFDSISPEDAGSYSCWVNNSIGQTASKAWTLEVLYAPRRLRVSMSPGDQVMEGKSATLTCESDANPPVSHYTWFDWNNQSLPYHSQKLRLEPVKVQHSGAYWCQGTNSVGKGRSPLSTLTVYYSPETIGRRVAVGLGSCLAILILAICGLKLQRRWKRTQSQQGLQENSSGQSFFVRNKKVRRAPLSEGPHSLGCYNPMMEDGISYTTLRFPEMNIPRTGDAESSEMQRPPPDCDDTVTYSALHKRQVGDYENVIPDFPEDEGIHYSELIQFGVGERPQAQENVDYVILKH
The assay can be described thus: flow cytometry on Raji cells, diabody at 8 ug/mL, detected with anti-Flag M2 antibody and FITC-anti-mouse IgG. On the procedure: (§1) Purified LL2 diabody and RFB4 diabody were added to cells of the B-lymphoma cell line, Raji, in PBS containing 2% FCS and 0.02% NaN₃ such that the final concentrations were 20 μg/mL and 8 μg/mL, respectively. After reacting on ice for one hour, anti-Flag M2 antibody was added to the mixture, and then reacted on ice for another one hour. The cells were washed and reacted with FITC-anti-mouse IgG on ice for 30 minutes. Diabody binding to the cell surface was measured by flow cytometry (EPICS ELITE, COULTER).
(In general: A flow cytometer gives signals particle by particle.)

The target in assay [2] is T1, CD22. Kind of assay: flow cytometry on Raji cells, diabody at 20 ug/mL, detected with anti-Flag M2 antibody and FITC-anti-mouse IgG. On the procedure: as §1

B1: RFB4 diabody (other)
chain: EVQLVESGGGLVKPGGSLKLSCAASGFAFSIYDMSWVRQTPEKRLEWVAYISSGGGTTYYPDTVKGRFTISRDNAKNTLYLQMSSLKSEDTAMYYCARHSGYGSSYGVLFAYWGQGTLVTVSAGGGGSDIQMTQTTSSLSASLGDRVTISCRASQDISNYLNWYQQKPDGTVKLLIYYTSILHSGVPSKFSGSGSGTDYSLTISNLEQEDFATYFCQQGNTLPWTFGGGTKLEIKDYKDDDDK
notes: Diabody: a non-covalent dimer of two identical VH-(5-mer linker)-VL-Flag fragments; Transiently expressed in COS7 cells and purified on anti-Flag M2 agarose; also called CD22 diabody; RFB4 DB
B1: in assay [1], the binding result was “binds”.

B2: LL2 diabody (other)
chain: QVQLQESGAELSKPGASVKMSCKASGYTFTSYWLHWIKQRPGQGLEWIGYINPRNDYTEYNQNFKDKATLTADKSSSTAYMQLSSLTSEDSAVYYCARRDITTFYWGQGTTLTVSSGGGGSDIQLTQSPSSLAVSAGENVTMSCKSSQSVLYSANHKNYLAWYQQKPGQSPKLLIYWASTRESGVPDRFTGSGSGTDFTLTISRVQVEDLAIYYCHQYLSSWTFGGGTKLEIKDYKDDDDK
notes: Diabody: a non-covalent dimer of two identical VH-(5-mer linker)-VL-Flag fragments; Expressed in DG44 cells and purified on anti-Flag M2 agarose; also called CD22 diabody; LL2 DB
As for B2, the binding result in assay [2] was “binds”.

Values taken from patent publication US20070003556A1 (published 2007).
